Measured values from paper PMC5531254, “MRE11 stability is regulated by CK2-dependent interaction with R2TP complex” (Oncogene, 2017).
No end group written: not given here.

How the values were obtained:
PIH1D1 (51-180) [1] = target: PIH1D1 (51-180) (UniProt Q9NWS0); assay: ITC; ~80 uM protein and ~800 uM peptide; performed in triplicate, means ± standard deviation; ITC as described previously
[2] = target: PIH1D1 N-terminal PIH-N domain fragment (UniProt Q9NWS0); assay: ITC; MRE11 peptides with purified PIH1D1 PIH-N domain fragment, performed as described previously
PIH1D1 (51-180) [3] = target: T1, PIH1D1 (51-180) (UniProt Q9NWS0 51-180); assay: ITC; ~80 uM protein and ~800 uM peptide; performed in triplicate, means ± standard deviation; ITC as described previously; settings: both partners purified
T1 construct: also called PIH1D1 N-terminal PIH-N domain fragment (aa 51-180); PIH-N; source: purified as described previously
T1 sequence (Q9NWS0 51-180): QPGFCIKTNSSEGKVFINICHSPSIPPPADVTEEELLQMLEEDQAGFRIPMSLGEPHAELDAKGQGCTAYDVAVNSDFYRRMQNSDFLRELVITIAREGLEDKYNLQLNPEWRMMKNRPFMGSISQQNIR

Chain of PIH1D1 (51-180) (UniProt Q9NWS0) (Q9NWS0 51-180): as above

Molecule | Kd (PIH1D1 (51-180) [1]) [µM] | stoichiometry N (PIH1D1 (51-180) [1]) | Kd [2] [µM] | stoichiometry N (PIH1D1 (51-180) [3])
MRE11 pS688/pS689 peptide (ITC) | 40.9 | 0.8 | – | –
MRE11 DpSDD motif-containing peptide phosphorylated on serines 558 and 561 | – | – | 26 | –
MRE11 pS558/pS561 peptide (ITC) | 26.1 | 1.1 | – | –

The remaining lines, values ahead:

Kd (PIH1D1 (51-180) [1]) [µM] | stoichiometry N (PIH1D1 (51-180) [1]) | Kd [2] [µM] | stoichiometry N (PIH1D1 (51-180) [3]) | Molecule
– | – | 41 | – | MRE11 third acidic sequence peptide phosphorylated on serines 688 and 689
– | – | – | 1.3 | YSDLDSDDEFVPY (also: phosphoserine at 491 (TEL2 numbering), position in peptide not given here, N-terminal tyrosine added for concentration determination; not part of TEL2; source: synthetic peptide) [TEL2 pS491 peptide]
